In IntAct's records for PubMed 15784897:

How the values were obtained:
[1] = biological target: hck_human HCK (UniProt P08631)
[2] = biological target: grb2_human GRB2 (UniProt P62993)
[3] = biological target: lck_human LCK (UniProt P06239)
[4] = biological target: fyn_human FYN (UniProt P06241)

Measured: effect of a mutation on the interaction

Chain of lck_human LCK (P06239 whole entry, looked up): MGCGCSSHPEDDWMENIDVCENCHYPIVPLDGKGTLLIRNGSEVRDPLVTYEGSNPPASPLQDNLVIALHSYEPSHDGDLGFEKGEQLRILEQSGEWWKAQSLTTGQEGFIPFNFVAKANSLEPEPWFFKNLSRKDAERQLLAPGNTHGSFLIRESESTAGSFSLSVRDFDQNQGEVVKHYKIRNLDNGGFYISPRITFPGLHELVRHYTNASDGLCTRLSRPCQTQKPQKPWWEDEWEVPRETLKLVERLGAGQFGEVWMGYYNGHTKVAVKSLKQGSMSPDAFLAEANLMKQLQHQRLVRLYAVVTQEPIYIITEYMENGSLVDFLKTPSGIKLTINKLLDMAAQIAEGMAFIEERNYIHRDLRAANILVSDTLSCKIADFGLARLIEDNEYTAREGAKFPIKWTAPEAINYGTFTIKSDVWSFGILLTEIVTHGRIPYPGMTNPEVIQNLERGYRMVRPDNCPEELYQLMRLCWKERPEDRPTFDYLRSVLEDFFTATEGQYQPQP
Chain of hck_human HCK (P08631 whole entry, looked up): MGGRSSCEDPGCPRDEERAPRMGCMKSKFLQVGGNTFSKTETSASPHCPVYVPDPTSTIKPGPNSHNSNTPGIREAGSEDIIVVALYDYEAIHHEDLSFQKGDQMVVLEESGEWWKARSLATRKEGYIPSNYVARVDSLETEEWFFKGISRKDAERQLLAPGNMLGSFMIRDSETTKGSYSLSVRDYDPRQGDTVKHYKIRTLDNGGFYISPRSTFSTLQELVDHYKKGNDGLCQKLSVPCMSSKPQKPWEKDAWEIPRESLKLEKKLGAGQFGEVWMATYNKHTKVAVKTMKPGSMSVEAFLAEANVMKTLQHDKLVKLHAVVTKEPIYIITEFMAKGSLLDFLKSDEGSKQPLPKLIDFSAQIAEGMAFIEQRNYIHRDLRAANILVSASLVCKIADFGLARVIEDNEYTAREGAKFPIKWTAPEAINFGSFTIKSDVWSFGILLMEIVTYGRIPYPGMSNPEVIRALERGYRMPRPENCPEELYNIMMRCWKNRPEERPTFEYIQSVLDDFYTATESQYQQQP
Chain of fyn_human FYN (P06241 whole entry, looked up): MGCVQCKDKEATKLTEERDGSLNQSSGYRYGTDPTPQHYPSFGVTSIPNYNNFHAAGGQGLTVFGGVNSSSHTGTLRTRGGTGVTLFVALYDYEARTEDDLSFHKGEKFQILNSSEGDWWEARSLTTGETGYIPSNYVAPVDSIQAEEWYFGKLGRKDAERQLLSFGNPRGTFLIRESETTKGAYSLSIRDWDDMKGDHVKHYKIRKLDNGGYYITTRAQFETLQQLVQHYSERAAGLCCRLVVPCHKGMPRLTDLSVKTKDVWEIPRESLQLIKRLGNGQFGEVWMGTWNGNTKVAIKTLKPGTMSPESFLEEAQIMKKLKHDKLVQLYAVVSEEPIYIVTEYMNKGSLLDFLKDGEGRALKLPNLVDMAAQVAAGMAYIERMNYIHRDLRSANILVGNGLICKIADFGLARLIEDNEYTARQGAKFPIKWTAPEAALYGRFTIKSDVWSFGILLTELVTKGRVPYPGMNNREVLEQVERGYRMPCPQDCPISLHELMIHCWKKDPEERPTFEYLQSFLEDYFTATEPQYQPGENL

Genome polyprotein (Hepatitis C virus genotype 1b (isolate Con1) (HCV)), Q9WMX2 P2322A;P2325A;P2326A
disrupting interaction: all assays above
